Here are results for 84 variants from the RNAGym collection of RNA variant scans (doi:10.1073/pnas.2313332121).

Fewer inactive variants are shown than the library holds. Bounds are passed on as bounds.

B1: TPR 5TU (parent)
chain: GGAUCUUCUCGAUCUAACAAAAAAGACAAAUCUGCCACAAAGCUUGAGAGCAUCUUCGGAUGCAGAGGCGGCAGCCUUCGGUGGCGCGAUAGCGCCAACGUUCUCAACUAUGACACGCAAAACGCGUGCUCCGUUGAAUGGAGUUUAUCAUG

Variants of B1 are the subject of this data set. The data set is described as follows: polymerase ribozyme fitness, log enrichment relative to wild type (log ratio); higher = more active; in vitro selection for triplet polymerase activity. The method, boiled down:
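Frozen incubation at −7 °C formed the core of a single, triplicate in vitro selection round applied to PCR-built, transcribed mutant libraries of each subunit of a heterodimeric triplet polymerase ribozyme. Extended constructs were gel-excised, captured with streptavidin beads and amplified by RT-PCR, and input and output libraries were Illumina-sequenced with a filter of ≥10 input reads and ≥1 read per output. Fitness is the logarithm of genotype enrichment relative to wild-type enrichment, with inverse-variance-weighted replicate averaging, and the logarithm is base 2.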
With A12C C36U C85U A147U, the “polymerase ribozyme fitness (log ratio)” value is -1.81. Turning to U9C G11U A16G C51G C93G G112U, the “polymerase ribozyme fitness (log ratio)” value is not above -4.2. On to G11C C36G U56A C57U G59A C96G, for which the “polymerase ribozyme fitness (log ratio)” value is not above -4.2. As for G11U A28C A49C C51A U53A C57U C95A G140A, the “polymerase ribozyme fitness (log ratio)” value is not above -4.2. In the case of C10G A47C C54A U55A G58A C63U U82C C87G G100U A113C U134G it was not above -4.2. As for C10G A22C C35U G86U A115G G124A, the “polymerase ribozyme fitness (log ratio)” value was not above -4.2.

For the variant C10A G48A U56G C79G C96A G143C, the “polymerase ribozyme fitness (log ratio)” value was not above -4.2.

With C10U U31A C57A U61A U77C C95A C99U C116U, the “polymerase ribozyme fitness (log ratio)” value is not above -4.2. Turning to C10G A52C, the “polymerase ribozyme fitness (log ratio)” value is not above -4.2.

Consider A12C C57A, for which the “polymerase ribozyme fitness (log ratio)” value is -0.21.

For C10U C96G A119U, the “polymerase ribozyme fitness (log ratio)” value was not above -4.2. Take C10U A52C U55A A97G A98G C129U: the “polymerase ribozyme fitness (log ratio)” value was not above -4.2. For the variant C10U G46C G124A, the “polymerase ribozyme fitness (log ratio)” value is not above -4.2. In the case of U9C C96U A110G, the “polymerase ribozyme fitness (log ratio)” value is not above -4.2. A12C A40C C87A C93U G94C A110G A142U: the “polymerase ribozyme fitness (log ratio)” value is not above -4.2. In the case of G11U G50C A73G, the “polymerase ribozyme fitness (log ratio)” value is not above -4.2. On to C10U C14G U15G A29C C38U G58A A91G U127G C149U, for which the “polymerase ribozyme fitness (log ratio)” value is not above -4.2. For the variant G11U A24U G50A U56A A60G C87U G126A U146G, the “polymerase ribozyme fitness (log ratio)” value is not above -4.2.

Take C10G G42A C57U C85A C108U: the “polymerase ribozyme fitness (log ratio)” value was not above -4.2.

C10G A22G C63U G81U G94C A147G U148A: the “polymerase ribozyme fitness (log ratio)” value is not above -4.2. In the case of G11A A29G C38G A147C it was not above -4.2; in that of G11U A30U C95U C99U, not above -4.2. For U9C U33G A39U U55A C57U A91C C95A G140U, the “polymerase ribozyme fitness (log ratio)” value is not above -4.2.

In the case of G11U A60C C76U, the “polymerase ribozyme fitness (log ratio)” value is -3.53. For the variant G11C A26U C69U, the “polymerase ribozyme fitness (log ratio)” value is not above -4.2. C10U A17G A28C G42A C85U A89G C93U U145G: the “polymerase ribozyme fitness (log ratio)” value is not above -4.2.

On to C10A A19G C57A G59A U82A C85U G141C, for which the “polymerase ribozyme fitness (log ratio)” value was not above -4.2. Consider A12C C35G U56G G80A G81C G100C C116U U135C, for which the “polymerase ribozyme fitness (log ratio)” value was not above -4.2. In the case of A12C C96G C99U, the “polymerase ribozyme fitness (log ratio)” value was -2.39. With G11U A22G G59U G65C A98U U127C C129G the figure was not above -4.2; with C10A U15G C57U G83C, not above -4.2. On to A12C G59C C87A A107G A115U A150U, for which the “polymerase ribozyme fitness (log ratio)” value was not above -4.2.

Take C10A A22U A39U C85U G126A: the “polymerase ribozyme fitness (log ratio)” value was not above -4.2. For the variant C10U A20U G83U, the “polymerase ribozyme fitness (log ratio)” value is -3.85. Turning to C10U C96U, the “polymerase ribozyme fitness (log ratio)” value was -2.51. With C10U C96G the figure was -3.82; with U9G A19U, -4.09; with C10G A23U U56A C93U, not above -4.2. With C10A A40C U56A C108U G143C the figure was not above -4.2. With G11U U31A A60G C93A the figure was -3.94; with C10A C85A, -3.53; with C10G C116A, -2.96. Turning to G11U C96U A119C, the “polymerase ribozyme fitness (log ratio)” value was -1.07. In the case of C10G G48A G80A G84A A91C C114U C125U A142C it was not above -4.2. For the variant U9G G11U U44A G50C C87A C105G, the “polymerase ribozyme fitness (log ratio)” value is not above -4.2. U9G C35U G48U U56G A60C G74A C96G U104G A107U: the “polymerase ribozyme fitness (log ratio)” value is not above -4.2. In the case of G11C A47U G68C C85A C95A A106G U134C A150G it was not above -4.2; in that of C10A U102G U139G A150U U151G, not above -4.2; in that of C10G A40G A49C U102G G128A, not above -4.2. For C10U U15C A39U G48C C76A C85G G88A U90G G140U, the “polymerase ribozyme fitness (log ratio)” value is not above -4.2. In the case of G11U C32A C54U C57U G92C U148G U151G it was not above -4.2.

A12C A119G: the “polymerase ribozyme fitness (log ratio)” value is -0.0231. On to G11C A20G A47C, for which the “polymerase ribozyme fitness (log ratio)” value is -2.54. As to U9G C14A C85U, the “polymerase ribozyme fitness (log ratio)” value was -4.02. As for C10G G65U G88C C105U C114A, the “polymerase ribozyme fitness (log ratio)” value is not above -4.2.

Turning to G11A A16U A21U A60U C63A C85A G126U, the “polymerase ribozyme fitness (log ratio)” value was not above -4.2. With A12C U53A U56A the figure was -2.64. As for U9C G58A A98U, the “polymerase ribozyme fitness (log ratio)” value is not above -4.2. In the case of C10U U13G C14A A28C C54U G92C A113U A122G C129U it was not above -4.2; in that of C10U A37U C57G G58U C87G G140U U145A, not above -4.2. Take G11A G50A C63U C93U: the “polymerase ribozyme fitness (log ratio)” value is -1.77.

With A12C A37C G50A C79G A98G, the “polymerase ribozyme fitness (log ratio)” value was not above -4.2.

On to U9C U15G A17U A21U C27G U56A G68A, for which the “polymerase ribozyme fitness (log ratio)” value was not above -4.2. Consider C10U A29U U53A C79G C85U C95G A107U, for which the “polymerase ribozyme fitness (log ratio)” value is not above -4.2. C10U C32A C38G C43A G83A A91U C95G A97U U144G: the “polymerase ribozyme fitness (log ratio)” value is not above -4.2.

As for A12C A22C U82A G126A, the “polymerase ribozyme fitness (log ratio)” value was found to be 0.264. As to G11U A12U A30U U55A C85U C95U A142U, the “polymerase ribozyme fitness (log ratio)” value was not above -4.2. As to G11C G92U, the “polymerase ribozyme fitness (log ratio)” value was -1.84.

Turning to A12C C43A C57A G84A U139G A147U, the “polymerase ribozyme fitness (log ratio)” value is not above -4.2. Take A12C U61A G84U A97U U145C: the “polymerase ribozyme fitness (log ratio)” value is not above -4.2. As for G11A G59C, the “polymerase ribozyme fitness (log ratio)” value was -0.989. In the case of C10A A39C C54U C76U C87A it was not above -4.2. In the case of C10G U53A A150C it was not above -4.2; in that of G11U A26G C54U A142C, not above -4.2; in that of C10U U56A G67C G86C C96A G126U, not above -4.2. For C10A A22C A73U C79G C87A A113G, the “polymerase ribozyme fitness (log ratio)” value was not above -4.2. Consider G11C A37C U82G C85G C105U C116G, for which the “polymerase ribozyme fitness (log ratio)” value is not above -4.2.

Consider A12C A97G U102G, for which the “polymerase ribozyme fitness (log ratio)” value is -3.89. G11U G70U G83C A122G G143C: the “polymerase ribozyme fitness (log ratio)” value is not above -4.2. On to G11A G83A G94U G128U U145G, for which the “polymerase ribozyme fitness (log ratio)” value was not above -4.2. Regarding C10U A40C G42C A49G G58U G83C G92A A107C G141C C149G, the “polymerase ribozyme fitness (log ratio)” value is not above -4.2. Turning to G11A C105U, the “polymerase ribozyme fitness (log ratio)” value is -1.12.

A12G A16G U31A C125A U145C: the “polymerase ribozyme fitness (log ratio)” value is -0.993. With G11A C123U A142U the figure was -1.6.
